Laboratory results taken from PMC11087509, “Multimodal binding and inhibition of bacterial ribosomes by the antimicrobial peptides Api137 and Api88” (Nature Communications, 2024).
[ ]: non-standard residue; d: D form. Gu = N-terminal tetramethylguanidine; Orn = NCCC[C@H](N)C(=O)O

Experiments:
Assay in all cases: fluorescence polarisation; cf-labeled peptide (10 µL of 40 nmol/L) added to a 2-fold dilution series (22 steps, 10 µL) of pure 70S ribosome, 50S or 30S subunit; ribosome preparation buffer (20 mmol/L HEPES-KOH, 6 mmol/L MgCl2, 30 mmol/L NH4Cl, pH 7.6); 28 ± 1 °C, 90 min; apparent Kd (average over at least two or three sites)
Conditions in all cases: both partners purified
[1] = target: purified E. coli 70S ribosome (E. coli (endogenous in BW25113), UniProt P60723 1-201; P61175 1-110; P0ADZ0 1-100; P0A7M6 1-63; P0A7J3 1-165)
[2] = target: purified E. coli 50S ribosomal subunit (E. coli (endogenous in MRE600), UniProt P60723 1-201; P61175 1-110; P0ADZ0 1-100; P0A7M6 1-63; P0A7J3 1-165)
[3] = target: purified E. coli 30S ribosomal subunit (E. coli (endogenous in MRE600))

Binder | Kd [1] | Kd [2] | fold weaker binding than to the 50S subunit [3]
Gu-[Orn](5(6)‑carboxyfluorescein)NNRPVYIPRPRPPHPRL-NH2 [cf-Api88 (5(6)-carboxyfluorescein-labeled Api88, Gu-ONNRPVYIPRPRPPHPRL-NH2)] | 1800 nM | 600 nM | ~23 fold
Gu-[Orn](5(6)‑carboxyfluorescein)NNRPVYIPRPRPPHPRL-OH [cf-Api137 (5(6)-carboxyfluorescein-labeled Api137, Gu-ONNRPVYIPRPRPPHPRL-OH)] | 4730 nM | 2200 nM | ~10 fold
